In US20220025002A1 (INSTITUT PASTEUR, published 2022):
Blank lines part the entries; values can stand above or below the binder they belong to. Bridges are numbered along the chain shown (N, C = ends). Where no end group is shown, it is not given here. [ ]: non-standard residue; d: D form. GluOMe = glutamic acid methyl ester; R8 = C=CCCCCCC[C@@](C)(N)C(=O)O; S5 = C=CCCC[C@](C)(N)C(=O)O; Aib = CC(C)(N)C(=O)O

Columns and labels:
[1] = target: T1, CC2-LZ domain of NEMO (mouse CC2-LZ) (mouse, UniProt O88522 251-337, limits assumed); test: fluorescence polarization, labelled peptide fixed at 0.1 µM, CC2-LZ titrated
T1 construct: domain: CC2-LZ; The methods say that the mouse CC2-LZ was used in the fluorescence anisotropy assay; also called NOA; UBAN
Protocol: (§1) Anisotropy data were calculated using the Magellan software version 6.5. Prior experiments, the mouse CC2-LZ was extensively dialyzed in binding buffer containing 20 mM HEPES pH 7.4, 100 mM NaCl, and 0.05% P20 detergent (v/v). All experiments were performed in a 384 well plate (vol 25 μl) at room temperature. The BODIPY®-labeled peptide concentrations were fixed at 0.1 or 10 μM whereas the CC2-LZ concentration varied from 0 to 100 μM. Reference calibrated at 22 mP, was based on the fluorescence of the peptide alone. Each experimental binding curve was determined from at least 10 independent concentration points. The G-factor was calculated as previously described in Agou et al. [7], with a value of 0.75, which was observed constant within 5% upon all titrations. For analysis, the blank value corresponding to the value of buffer alone, was subtracted from all titration data. The integration time was 20 μs. Experiments were done in duplicate, and the KD was estimated by fitting the anisotropy data with the rectangular hyperbolic binding equation, using KaleidaGraph software as described elsewhere [1].
(§2) For each peptide titration, various concentration of the target ranging from 0 to 100 μM and a fixed concentration of peptide at 0.1 or 10 μM were used at 25° C. […] For these reasons, all further titration experiments were performed with a fixed peptide concentration of 0.1 μM unless otherwise indicated.

[2] = target: T2, NEMO (NF-kB essential modulator) in 70Z3-C3 pre-B lymphocytes (UniProt O88522 1-412, limits assumed); test: cell-based or functional assay
[3] = target: T1, CC2-LZ domain of NEMO (mouse CC2-LZ); test: fluorescence polarization, labelled peptide, CC2-LZ titrated
[4] = target: T1, CC2-LZ domain of NEMO (mouse CC2-LZ); test: fluorescence polarization, labelled peptide fixed at 10 µM, CC2-LZ titrated
Protocol: as §1, §2

[5] = target: T2, NEMO (NF-kB essential modulator) in …; test: cell-based or functional assay; remark: listed apart in the source
[6] = target: NEMO (NF-kB essential modulator), human, in DLBCL cell lines (human, UniProt Q9Y6K9 1-419); test: cell-based or functional assay
Sequence of NEMO (NF-kB essential modulator), human, in DLBCL cell lines (Q9Y6K9 whole entry): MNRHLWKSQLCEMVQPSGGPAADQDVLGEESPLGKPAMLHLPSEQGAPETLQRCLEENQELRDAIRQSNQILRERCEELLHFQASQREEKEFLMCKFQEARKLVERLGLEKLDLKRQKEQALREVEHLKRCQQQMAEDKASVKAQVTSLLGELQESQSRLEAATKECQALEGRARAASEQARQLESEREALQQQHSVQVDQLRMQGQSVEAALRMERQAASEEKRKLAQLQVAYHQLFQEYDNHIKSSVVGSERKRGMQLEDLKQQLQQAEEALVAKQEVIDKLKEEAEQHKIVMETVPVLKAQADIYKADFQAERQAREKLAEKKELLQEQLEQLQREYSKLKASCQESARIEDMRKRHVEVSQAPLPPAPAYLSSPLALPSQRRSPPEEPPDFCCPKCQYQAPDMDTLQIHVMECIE

T1 sequence (O88522 251-337 limits assumed): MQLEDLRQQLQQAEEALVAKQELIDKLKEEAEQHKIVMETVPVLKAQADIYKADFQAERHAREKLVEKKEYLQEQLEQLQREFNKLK
T2 sequence (O88522 whole entry, the tested form may be a part): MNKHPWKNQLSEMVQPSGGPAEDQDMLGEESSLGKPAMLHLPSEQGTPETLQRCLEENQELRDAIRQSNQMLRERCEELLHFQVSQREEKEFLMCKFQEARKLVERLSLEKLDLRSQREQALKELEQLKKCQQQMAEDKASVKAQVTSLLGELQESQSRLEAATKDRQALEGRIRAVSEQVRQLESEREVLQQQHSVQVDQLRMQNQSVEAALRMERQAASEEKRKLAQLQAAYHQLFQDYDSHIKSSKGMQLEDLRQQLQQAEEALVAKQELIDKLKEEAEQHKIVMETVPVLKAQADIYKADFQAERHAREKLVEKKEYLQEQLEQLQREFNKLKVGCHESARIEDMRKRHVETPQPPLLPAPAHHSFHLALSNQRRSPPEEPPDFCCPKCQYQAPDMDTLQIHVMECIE

Kd [1]: 211 µM
B1: UBI-SAHN A303-A310, conformer B (peptide)
peptide: Ac-CLK[R8]QADIYK[S5]RFQAERHAREK
modifications: staple 4-11; not fully specified (C-terminus); also: extra N-terminal Cys labelled with BODIPY or FITC (label not settled), staple isomer B (trans)
notes: also called UBI-SAHNA303-A310 (B)

Kd [1]: ~360 µM
B2: UBI-SAHN A310-A314 (peptide)
peptide: Ac-CLKAQADIYK[S5]RFQ[S5]ERHAREK
modifications: staple 11-15; also: N-terminal Cys thiol labelled with BODIPY or FITC (BODIPY FL maleimide)
notes: Stapled i,i+4; also called A310S5-A314 S5

IC50, NF-κB inhibition in 70Z3-C3 reporter cells [2]: 1.9 µM
Kd [3]: 24 µM
B3: UBI-SAHN D306-Q313 OMe (peptide)
peptide: Ac-CLKAQA[R8]IYKARF[S5]A[GluOMe]RHAR[GluOMe]K
modifications: staple 7-14; also: N-terminal Cys labelled with BODIPY or FITC (which one not given here)
notes: also called D306 R8-Q313 S5 E315MeGlu E320MeGlu

Kd [1]: 85 µM
B4: UBI-SAHN D306-A310 (peptide)
peptide: Ac-CLKAQA[S5]IYK[S5]RFQAERHAREK
modifications: staple 7-11; also: N-terminal Cys labelled with BODIPY or FITC, which one is not given here
notes: Stapled i,i+4; also called D306 R8-A310 S5

IC50, NF-κB inhibition in 70Z3-C3 reporter cells [2]: 1.3 µM
Binder: LKAQA[S5]IYK[S5]RFQAQRHARQK (staple 6-10) [UBI-SAHN D306-A310 with the double substitution Glu-Gln (E315Q E320Q)]

IC50, NF-κB inhibition in 70Z3-C3 reporter cells [2]: 0.8 µM
Kd [3]: 23 µM
B5: UBI-SAHN D306-Q313 Q/Q (peptide)
peptide: Ac-CLKAQA[R8]IYKARF[S5]AQRHARQK
modifications: staple 7-14; not fully specified (C-terminus); printed as LKAQAX2IYKARFX5AQRHARQK; also: extra N-terminal Cys labelled with BODIPY or FITC, staple cis/trans isomer not given here
notes: also called D306 R8-Q313 S5 E315Q E320Q

Kd [1]: > 10000 µM
Kd [4]: > 10000 µM
Binder: CLK[Aib]Q[Aib]DIYK[Aib]RFQ[Aib]ERH[Aib]REK (also: extra N-terminal Cys carries BODIPY or FITC label (not settled)) [UBI-AIB]

Kd [1]: 76 µM
B6: UBI-SAHN A303-A310, conformer A (peptide)
peptide: Ac-CLK[R8]QADIYK[S5]RFQAERHAREK
modifications: staple 4-11; not fully specified (C-terminus); also: extra N-terminal Cys labelled with BODIPY or FITC (label not settled), staple isomer A (cis)
notes: also called UBI-SAHNA303-A310 (A); A303 R8-A310 S5

Kd [1]: 0.3 µM
B7: A-UBI-SAHN A303-A310, conformer A (peptide)
peptide: Ac-CRQIKIWFQNRRMKWKKLK[R8]QADIYK[S5]RFQAERHAREK-NH2
modifications: staple 20-27; not fully specified; also: conformer A
notes: With N-terminal antennapedia; also called A-UBI-SAHNA303-A310 (A)

IC 50(µM), NF-κB inhibition in LPS-stimulated 70Z3-C3 lacZ reporter cells [5]: 0.43 µM
Kd [1]: 0.2 µM
Kd [4]: 21 µM
B8: A-UBI-SAHN A310-A314 (peptide)
peptide: Ac-CRQIKIWFQNRRMKWKKLKAQADIYK[S5]RFQ[S5]ERHAREK-NH2
modifications: staple 27-31; also: N-terminal Cys thiol labelled with BODIPY or FITC (BODIPY FL maleimide)
notes: Stapled i,i+4 with N-terminal antennapedia

Kd [1]: ~360 µM
B9: UBI-SAHN A303-I307 (peptide)
peptide: Ac-CLK[S5]QAD[S5]YKARFQAERHAREK
modifications: staple 4-8; also: N-terminal Cys thiol labelled with BODIPY or FITC (BODIPY FL maleimide)
notes: Stapled i,i+4; also called A303 S5-I307 S5

IC 50(µM), NF-κB inhibition in LPS-stimulated 70Z3-C3 lacZ reporter cells [5]: 1.5 µM
Kd [1]: 5 µM
Kd [4]: 24 µM
Binder: CRQIKIWFQNRRMKWKKLK[Aib]Q[Aib]DIYK[Aib]RFQ[Aib]ERH[Aib]REK (also: N-terminal Cys labelled with BODIPY or FITC) [A-UBI-AIB]

IC 50(µM), NF-κB inhibition in LPS-stimulated 70Z3-C3 lacZ reporter cells [5]: 0.6 µM
Kd [1]: 0.02 µM
B10: A-UBI-SAHN A303-A310, conformer B (peptide)
peptide: Ac-CRQIKIWFQNRRMKWKKLK[R8]QADIYK[S5]RFQAERHAREK-NH2
modifications: staple 20-27; also: Cys1 thiol labelled with BODIPY or FITC (which one not fixed), conformer B
notes: With N-terminal antennapedia

Kd [3]: 0.06 µM
B11: A-UBI-SAHN D306-Q313 OMe (peptide)
peptide: Ac-CRQIKIWFQNRRMKWKKLKAQA[R8]IYKARF[S5]A[GluOMe]RHAR[GluOMe]K-NH2
modifications: staple 23-30; also: N-terminal Cys labelled with BODIPY or FITC, which one is not given here

IC 50(µM), NF-κB inhibition in LPS-stimulated 70Z3-C3 lacZ reporter cells [5]: 0.6 µM
Kd [1]: 0.06 µM
B12: A-UBI-SAHN D306-Q313, conformer A (peptide)
peptide: Ac-CRQIKIWFQNRRMKWKKLKAQA[R8]IYKARF[S5]AERHAREK-NH2
modifications: staple 23-30; also: extra N-terminal Cys labelled with BODIPY or FITC (label not settled), staple isomer A (cis)
notes: With N-terminal antennapedia; also called A-UBI-SAHND306-Q313 (A)

Binder: RQIKIWFQNRRMKWKKLKAQA[R8]IYKARF[S5]AERHAREK (staple 22-29; also: staple conformer not given here) [A-UBI-SAHN D306-Q313 (conformer not stated)]
EC50 of cell death, HLY1 cells, depending on incubation time [6]: 0.65 to 1.1 µM
EC50 of cell death, OCY-Ly3 cells, 7 h [6]: 2.6 µM
EC50 of cell death, OCY-Ly3 cells, 24 h [6]: 2.1 µM
EC50 of cell death, OCY-Ly3 cells, 48 h [6]: 5 µM

Kd [4]: > 10000 µM
B13: Co-UBI-SAHN I307-A314, conformer A (peptide)
peptide: Ac-CELAQLQAELD[R8]VQAVVQ[S5]DKQELRKL
modifications: staple 12-19; not fully specified (C-terminus); also: extra N-terminal Cys labelled with BODIPY or FITC (label not settled), staple isomer A (cis)
notes: 26 aa control peptide; also called Co-SAHN I307-A314 (A); I307 R8-A314 S5

Kd [1]: 0.05 µM
B14: A-UBI-SAHN D306-Q313, conformer B (peptide)
peptide: Ac-CRQIKIWFQNRRMKWKKLKAQA[R8]IYKARF[S5]AERHAREK-NH2
modifications: staple 23-30; also: extra N-terminal Cys labelled with BODIPY or FITC (label not settled), staple isomer B (trans)
notes: With N-terminal antennapedia; also called A-UBI-SAHND306-Q313 (B)

Kd [4]: > 10000 µM
B15: Co-UBI-SAHN I307-A314, conformer B (peptide)
peptide: Ac-CELAQLQAELD[R8]VQAVVQ[S5]DKQELRKL
modifications: staple 12-19; not fully specified (C-terminus); also: extra N-terminal Cys labelled with BODIPY or FITC (label not settled), staple isomer B (trans)
notes: 26 aa control peptide; also called Co-SAHN I307-A314 (B)
